Assay results as given in the Human Domainome abundance scans (Beltran et al. 2025).
± gives the uncertainty stated by the source.

B1: Homeobox expressed in ES cells 1, residues 110 to 165; numbered along this chain, Q9UBX0 (parent)
chain: RPRTAFTQNQIEVLENVFRVNCYPGIDIREDLAQKLNLEEDRIQIWFQNRRAKLKR

Variants of: B1
Assay: abundance fitness (aPCA) (normalised: wild type 0, dead -1); higher = more abundant; growth selection in yeast, the domain comes from the species named
Details: Homo sapiens
For L36F, the abundance fitness was 0.221 ± 0.2. For L36K, the abundance fitness was -0.931 ± 0.36. For L36R, the abundance fitness was -0.984 ± 0.19. For L36C, the abundance fitness was -0.508 ± 0.31. Work on L36G yielded an abundance fitness of -0.86 ± 0.15. L36W gave an abundance fitness of -0.132 ± 0.097. L36D showed an abundance fitness of -0.862 ± 0.3. Variant L36A has an abundance fitness of -1.01 ± 0.36. With L36H the abundance fitness was -0.712 ± 0.13. Work on L36M yielded an abundance fitness of -0.11 ± 0.34. With L36E the abundance fitness was -0.924 ± 0.34. For L36V, the abundance fitness was -1.01 ± 0.21. In the case of L36S, the abundance fitness is reported as -0.855 ± 0.34. With E40Y the abundance fitness was -0.57 ± 0.12. Work on E40N yielded an abundance fitness of -0.614 ± 0.31. Work on E40D yielded an abundance fitness of -0.119 ± 0.18. In the case of E40K, the abundance fitness is reported as -0.611 ± 0.26. In the case of E40Q, the abundance fitness is reported as -0.047 ± 0.14. With E40R the abundance fitness was -0.167 ± 0.091. E40A gave an abundance fitness of 0.052 ± 0.091. With E40I the abundance fitness was -0.205 ± 0.19. For E40T, the abundance fitness was -0.124 ± 0.11. With E40G the abundance fitness was -0.399 ± 0.13. Work on E40L yielded an abundance fitness of -0.338 ± 0.13. For E40S, the abundance fitness was -0.162 ± 0.1. In the case of E40W, the abundance fitness is reported as -0.928 ± 0.39. Work on E40H yielded an abundance fitness of -0.282 ± 0.17. With E40C the abundance fitness was -0.348 ± 0.076. Variant E40V has an abundance fitness of -0.244 ± 0.13. Variant E40F has an abundance fitness of -0.078 ± 0.17. Variant N37F has an abundance fitness of -0.195 ± 0.23. With N37D the abundance fitness was -0.151 ± 0.31. Variant N37P has an abundance fitness of -0.051 ± 0.23. N37I gave an abundance fitness of -0.431 ± 0.38. With N37M the abundance fitness was -0.613 ± 0.36. In the case of N37Y, the abundance fitness is reported as -0.634 ± 0.15. Variant N37C has an abundance fitness of -0.18 ± 0.065. With N37E the abundance fitness was -0.138 ± 0.13. Work on N37T yielded an abundance fitness of -0.258 ± 0.12. For N37Q, the abundance fitness was -0.189 ± 0.085. For N37S, the abundance fitness was -0.459 ± 0.22. N37L showed an abundance fitness of -0.312 ± 0.13. Variant N37K has an abundance fitness of -0.032 ± 0.079. For N37H, the abundance fitness was -0.343 ± 0.3. Variant N37G has an abundance fitness of 0.093 ± 0.098. Variant N37W has an abundance fitness of -0.863 ± 0.47. L54E showed an abundance fitness of 0.203 ± 0.085. L54D gave an abundance fitness of -0.071 ± 0.13. Work on L54P yielded an abundance fitness of 0.222 ± 0.19. Variant L54M has an abundance fitness of -0.195 ± 0.22. With L54V the abundance fitness was -0.082 ± 0.13. L54K showed an abundance fitness of -0.119 ± 0.14. L54W showed an abundance fitness of -0.205 ± 0.084. For L54Q, the abundance fitness was 0.01 ± 0.16. Variant L54R has an abundance fitness of -0.596 ± 0.079. L54F showed an abundance fitness of 0.312 ± 0.17. For L54C, the abundance fitness was -0.031 ± 0.11. Work on L54G yielded an abundance fitness of 0.319 ± 0.1. L54I showed an abundance fitness of 0.074 ± 0.08. Variant L54A has an abundance fitness of -0.34 ± 0.12. With R56W the abundance fitness was 0.617 ± 0.15. For R56V, the abundance fitness was -0.171 ± 0.27. For R56D, the abundance fitness was 0.686 ± 0.31. With R56C the abundance fitness was 0.033 ± 0.1. In the case of R56G, the abundance fitness is reported as 0.104 ± 0.25. In the case of W46F, the abundance fitness is reported as -0.547 ± 0.33. For W46G, the abundance fitness was -1.07 ± 0.18. Variant W46H has an abundance fitness of -0.58 ± 0.36. For W46T, the abundance fitness was -0.721 ± 0.36. W46S gave an abundance fitness of -0.595 ± 0.26. Work on W46D yielded an abundance fitness of -0.428 ± 0.4. W46K showed an abundance fitness of -0.925 ± 0.44. For W46P, the abundance fitness was -0.361 ± 0.26. In the case of W46A, the abundance fitness is reported as -0.693 ± 0.1. Variant W46L has an abundance fitness of -0.895 ± 0.29. W46Y showed an abundance fitness of 0.48 ± 0.26. W46E showed an abundance fitness of -0.751 ± 0.31. Work on W46V yielded an abundance fitness of -0.928 ± 0.29. W46C showed an abundance fitness of -1.15 ± 0.25. With D41H the abundance fitness was -0.039 ± 0.31. In the case of D41G, the abundance fitness is reported as -0.171 ± 0.094. In the case of D41M, the abundance fitness is reported as -0.174 ± 0.14. For D41I, the abundance fitness was -0.027 ± 0.17. With D41N the abundance fitness was 0.665 ± 0.18. With D41C the abundance fitness was -0.081 ± 0.15. In the case of D41V, the abundance fitness is reported as -0.095 ± 0.13. Variant D41E has an abundance fitness of 0.08 ± 0.1. With D41W the abundance fitness was 0.055 ± 0.15. D41Q showed an abundance fitness of -0.012 ± 0.21. D41T showed an abundance fitness of 0.023 ± 0.11. Work on D41F yielded an abundance fitness of -0.139 ± 0.12. For D41P, the abundance fitness was -0.044 ± 0.15. Work on D41S yielded an abundance fitness of 0.115 ± 0.11. Work on D41R yielded an abundance fitness of 0.026 ± 0.073. D41K gave an abundance fitness of -0.174 ± 0.23. N49I showed an abundance fitness of -0.46 ± 0.23. N49F gave an abundance fitness of -0.604 ± 0.41. With N49T the abundance fitness was -0.019 ± 0.11. Variant N49P has an abundance fitness of -0.648 ± 0.34. N49A gave an abundance fitness of 0.217 ± 0.13. Work on N49W yielded an abundance fitness of -0.471 ± 0.11. In the case of N49E, the abundance fitness is reported as 0.43 ± 0.12. Work on N49Q yielded an abundance fitness of -0.124 ± 0.37. For N49R, the abundance fitness was -0.291 ± 0.14. Variant N49C has an abundance fitness of -0.425 ± 0.088. With N49M the abundance fitness was 0.052 ± 0.2. N49G gave an abundance fitness of -0.527 ± 0.093. For N49S, the abundance fitness was -0.198 ± 0.16. For N49K, the abundance fitness was -0.102 ± 0.23. In the case of N49H, the abundance fitness is reported as -0.232 ± 0.31. Work on N49L yielded an abundance fitness of -0.19 ± 0.1. Work on N49D yielded an abundance fitness of 0.044 ± 0.11. For I45Y, the abundance fitness was 0.019 ± 0.26. For I45T, the abundance fitness was 0.114 ± 0.11. I45R showed an abundance fitness of 0.033 ± 0.099. Work on I45W yielded an abundance fitness of 0.444 ± 0.15. With I45L the abundance fitness was -0.026 ± 0.1. Work on I45N yielded an abundance fitness of 0.166 ± 0.2. Work on I45G yielded an abundance fitness of -0.031 ± 0.083. With I45H the abundance fitness was -0.166 ± 0.12. I45Q showed an abundance fitness of 0.108 ± 0.069. I45K showed an abundance fitness of 0.193 ± 0.19. I45M showed an abundance fitness of -0.049 ± 0.097. I45D gave an abundance fitness of 0.052 ± 0.2. In the case of I45F, the abundance fitness is reported as 0.157 ± 0.21. I45C gave an abundance fitness of 0.196 ± 0.14. I45E showed an abundance fitness of 0.079 ± 0.13. In the case of K55R, the abundance fitness is reported as -0.369 ± 0.089. K55G showed an abundance fitness of -0.302 ± 0.21. Variant K55D has an abundance fitness of -0.419 ± 0.37. K55M showed an abundance fitness of -0.181 ± 0.078. In the case of K55P, the abundance fitness is reported as -0.042 ± 0.19. Variant K55L has an abundance fitness of -0.583 ± 0.23. K55N showed an abundance fitness of -0.068 ± 0.31. Variant K55E has an abundance fitness of 0.334 ± 0.17. In the case of K55V, the abundance fitness is reported as -0.672 ± 0.37. K55I gave an abundance fitness of 0.143 ± 0.15. Work on K55F yielded an abundance fitness of -0.349 ± 0.46. Work on K55A yielded an abundance fitness of -0.451 ± 0.24. With K55S the abundance fitness was -0.399 ± 0.12. For K55H, the abundance fitness was -0.27 ± 0.12. With K55Y the abundance fitness was -0.479 ± 0.35. R50A gave an abundance fitness of -0.206 ± 0.083. With R50K the abundance fitness was -0.39 ± 0.34. With R50D the abundance fitness was -0.443 ± 0.22. R50G showed an abundance fitness of -0.782 ± 0.13. R50N gave an abundance fitness of -0.378 ± 0.3. R50L showed an abundance fitness of -0.818 ± 0.38. R50V showed an abundance fitness of -0.727 ± 0.21. Work on R50P yielded an abundance fitness of -0.954 ± 0.41. R50S gave an abundance fitness of -0.666 ± 0.22. In the case of R50Q, the abundance fitness is reported as 0.153 ± 0.2. R50T gave an abundance fitness of -0.236 ± 0.24. In the case of R50E, the abundance fitness is reported as 0.178 ± 0.071. R50H gave an abundance fitness of -0.242 ± 0.34. Work on R50C yielded an abundance fitness of -0.614 ± 0.3. Work on R50M yielded an abundance fitness of -0.38 ± 0.26. Variant A52R has an abundance fitness of -0.194 ± 0.14. In the case of A52E, the abundance fitness is reported as 0.059 ± 0.19. In the case of A52C, the abundance fitness is reported as -0.143 ± 0.17. A52G gave an abundance fitness of -0.205 ± 0.12. Variant A52L has an abundance fitness of -0.499 ± 0.25. A52K showed an abundance fitness of -0.064 ± 0.086.
